One block for each molecule: values may come before it.
Key:
[1] = molecular target: FLT3 on the surface of MONOMAC-6 cells (FLT3-overexpressing AML cell line) (human) (UniProt P36888); test: flow cytometry of Cy5.5+ MONOMAC-6 cells, 50 nM Cy5.5-conjugated nanoparticles, 1 h; negative control conjugate (background uptake)
[2] = molecular target: T1, FLT3 on the surface of MONOMAC-6 cells (FLT3-overexpressing AML cell line) (human, UniProt P36888 27-993); test: flow cytometry of Cy5.5+ MONOMAC-6 cells after 24 h treatment with Cy5.5-conjugated nanoparticles, compared with G7-FLT3L
T1 construct: whole, on cells; Endogenous receptor on a cell line; also called FMS-like tyrosine kinase 3; FLT3 receptor
T1 sequence (looked up): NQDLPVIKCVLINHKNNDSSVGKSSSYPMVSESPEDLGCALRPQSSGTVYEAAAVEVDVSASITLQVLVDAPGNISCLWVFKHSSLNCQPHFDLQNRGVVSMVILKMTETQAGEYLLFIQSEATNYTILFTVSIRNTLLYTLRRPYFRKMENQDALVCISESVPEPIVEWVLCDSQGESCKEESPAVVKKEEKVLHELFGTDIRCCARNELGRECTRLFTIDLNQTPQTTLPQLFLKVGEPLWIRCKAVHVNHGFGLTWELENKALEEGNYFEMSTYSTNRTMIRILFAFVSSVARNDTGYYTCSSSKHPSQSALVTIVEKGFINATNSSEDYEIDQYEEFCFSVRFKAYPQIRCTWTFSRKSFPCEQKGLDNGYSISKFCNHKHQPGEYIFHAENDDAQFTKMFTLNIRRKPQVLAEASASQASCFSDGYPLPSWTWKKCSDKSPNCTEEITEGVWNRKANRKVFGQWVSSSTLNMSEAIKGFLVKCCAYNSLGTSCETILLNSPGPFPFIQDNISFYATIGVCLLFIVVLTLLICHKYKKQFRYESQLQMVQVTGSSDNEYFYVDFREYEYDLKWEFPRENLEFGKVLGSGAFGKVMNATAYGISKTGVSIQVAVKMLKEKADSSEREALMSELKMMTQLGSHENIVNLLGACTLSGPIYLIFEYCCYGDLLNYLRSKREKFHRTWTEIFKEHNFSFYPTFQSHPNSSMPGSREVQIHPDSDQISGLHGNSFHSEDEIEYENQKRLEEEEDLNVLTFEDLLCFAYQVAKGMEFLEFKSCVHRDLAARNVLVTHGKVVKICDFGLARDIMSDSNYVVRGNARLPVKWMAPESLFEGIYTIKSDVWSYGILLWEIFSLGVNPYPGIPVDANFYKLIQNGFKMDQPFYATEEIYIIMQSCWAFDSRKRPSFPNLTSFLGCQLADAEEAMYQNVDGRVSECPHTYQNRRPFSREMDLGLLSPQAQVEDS

[3] = molecular target: T1, FLT3 on the surface of MONOMAC-6 cells …; test: flow cytometry of Cy5.5+ MONOMAC-6 cells, 50 nM Cy5.5-conjugated nanoparticles, 1 h
Text: FIG. 2(A) G7-NH₂ PAMAM dendrimers were first conjugated with the near-infrared dye Cy5.5 using an N-hydroxysuccinimide ester linker sulfo-SMCC. Next, the fluorescently-tagged G7-NH₂ (G7-Cy5.5) was conjugated to human recombinant FLT3L (i.e., the soluble FLT3L form with 155 amino acids; ProSpec-Tany Technogene Ltd., East Brunswick, N.J.) at a 1:2 ratio using the heterofunctional linker sulfosuccinimidyl 4-((N-maleimidomethyl) cyclohexane-1-carboxylate) (sulfo-SMCC), resulting in the G7-FLT3L conjugates. FIG. 2(B) MONOMAC-6 cells were treated with Cy5.5-conjugated G7-FLT3L or G7-H2B nanoparticles for 24 hrs at the indicated doses. The proportion of Cy5.5⁺ cells were detected through flow cytometry analysis. FIG. 2(C) MONOMAC-6 and U937 cells were treated with 50 nM Cy5.5-conjugated G7-FLT3L or G7-H2B nanoparticles for 1 hr. The proportion of Cy5.5⁺ cells were detected through flow cytometry analysis. FIG. 2(D) MONOMAC-6 cells transfected with MSCV-PIG-miR-150 (miR-150-PIG) or MSCV-PIG (PIG) were treated with 50 nM Cy5.5-conjugated G7-FLT3L or G7-H2B nanoparticles for 1 hr. The proportion of Cy5.5⁺ cells were detected through flow cytometry analysis. Each experiment was repeated independently for at least three times. Average levels of at least three replicates are shown. […]

[4] = molecular target: T1, FLT3 on the surface of MONOMAC-6 cells …; test: flow cytometry uptake by FLT3-overexpressing AML cells, against control protein conjugated nanoparticles
Procedure: FIG. 2(B) MONOMAC-6 cells were treated with Cy5.5-conjugated G7-FLT3L or G7-H2B nanoparticles for 24 hrs at the indicated doses. The proportion of Cy5.5⁺ cells were detected through flow cytometry analysis. FIG. 2(C) MONOMAC-6 and U937 cells were treated with 50 nM Cy5.5-conjugated G7-FLT3L or G7-H2B nanoparticles for 1 hr. The proportion of Cy5.5⁺ cells were detected through flow cytometry analysis. FIG. 2(D) MONOMAC-6 cells transfected with MSCV-PIG-miR-150 (miR-150-PIG) or MSCV-PIG (PIG) were treated with 50 nM Cy5.5-conjugated G7-FLT3L or G7-H2B nanoparticles for 1 hr. The proportion of Cy5.5⁺ cells were detected through flow cytometry analysis. Each experiment was repeated independently for at least three times. Average levels of at least three replicates are shown. FIG. 2(E) Cell viability (left panel) and apoptosis (right panel) of MONOMAC-6 cells treated with PBS (Ctrl), 50 nM G7-FLT3L or G7-H2B nanoparticles for 48 hr. *, P<0.05; **, P<0.01. […]

- uptake ratio (proportion of Cy5.5+ cells) [1]: 5.9%
Molecule: G7-H2B dendrimers (Cy5.5-labelled G7 PAMAM dendrimer conjugated to histone H2B, negative control)

- binding result [2]: binds
B1: G7-Flt3L dendrimers (Cy5.5-labelled G7 PAMAM dendrimer conjugated to the synthetic 74-amino acid mouse Flt3L peptide) (peptide)
peptide: SSNFKVKFRELTDHLLKDYPVTVAVNLQDEKHCKALWSLFLAQRWIEQLKTVAGSKMQTLLEDVNTEIHFVTSC
modifications: conjugated to a Cy5.5-labelled G7 PAMAM dendrimer; attachment residue not stated
notes: also called G7-Flt3L nanoparticles; engineered mouse Flt3L peptide

- uptake ratio (proportion of Cy5.5+ cells) [3]: 23.6%
- fold specificity and efficiency in targeting and uptake against nanoparticles conjugated with control proteins [4]: 4 times
B2: G7-FLT3L dendrimers (Cy5.5-labelled G7 PAMAM dendrimer conjugated to human recombinant soluble FLT3L) (ligand, UniProt P49771 27-184, looked up)
chain: TQDCSFQHSPISSDFAVKIRELSDYLLQDYPVTVASNLQDEELCGGLWRLVLAQRWMERLKTVAGSKMQGLLERVNTEIHFVTKCAFQPPPSCLRFVQTNISRLLQETSEQLVALKPWITRQNFSRCLELQCQPDSSTLPPPWSPRPLEATAPTAPQP
modifications: conjugated through the sulfo-SMCC linker to a Cy5.5-labelled G7 PAMAM dendrimer (approximately 0.5-1 FLT3L molecules per dendrimer); attachment residue not stated
notes: extracellular domain; The protein is carried on a G7 PAMAM dendrimer labelled with Cy5.5; also called G7-FLT3L nanoparticles; G7-FLT3L conjugates
